The results in this text go back to US20100015685A1, “LACTOBACILLUS N-DEOXYRIBOSYL TRANSFERASES, CORRESPONDING NUCLEOTIDE SEQUENCES AND THEIR USES” (INSTITUT PASTEUR, priority 2001, published 2010).

One data set concerns PAK 26 strain. Kind of data set: Nutritional screening in PAK 26 strain to distinguish deoxyribosyltransferase I and II activities. Type of data set: cell-based, Escherichia coli. Conditions: plasmid of selected transforming clones; deoxyguanosine and thymine as sources of guanine and thymidine. The text has this: Preferably this strain is incapable of growing in the presence of deoxyguanosine as a source of guanine. In preferred manner, it is the PAK 6 strain. • (ii) transfer of exogenous DNA, preferably in the form of an expression vector, into the bacterium, the exogenous DNA being capable of comprising a sequence coding for a deoxyribosyltransferase. • (iii) culture of the bacteria obtained in Stage (ii) on a medium containing deoxyguanosine. • (iv) isolation of the exogenous DNA transferred into the bacteria of Stage (iii) which have developed on the medium containing deoxyguanosine. The present invention also provides a nutritional screening for distinguishing the deoxyribosyltransferase I and II activities, preferably in particular for distinguishing between the ntd and ptd polypeptides according to the invention. This second screening comprises the stages of: • (i) obtaining a bacterial strain such as for example Escherichia coli, auxotrophic for guanine and thymidine. Preferably, this strain is incapable of growing in the presence of guanine and thymidine. In preferred manner, it is the PAK 26 strain (Δ guaBguaA::Δdeo-11 ΔthyA::erm Δ (udp-metE) zif9::Tn10) is auxotrophic for methionine, guanine and thymidine. • (ii) transfer of the exogenous DNA, preferably in the form of an expression vector, into the bacterium, the exogenous DNA being capable of comprising a sequence coding for a deoxyribosyltransferase I or II. • (iii) culture of the bacteria obtained in Stage (ii) on a medium containing deoxyguanosine, then determination of whether the bacteria are growing or not. If the bacteria are growing, then the exogenous DNA codes for a deoxyribosyltransferase II activity which is expressed in said bacterium. If the bacteria are not growing, then the exogenous DNA is capable of coding for a deoxyribosyltransferase I activity. Other characteristics and advantages of the invention are clear from the rest of the description, with examples represented hereafter. […]

In data set [1] the test system is N-deoxyribosyltransferase activity. Kind of data set: Enzymatic activity of corresponding raw extracts (in vitro). Set-up: key: (+) growth; (−) absence of growth. Format: biochemical. The following applies: for Enzymatic activity of raw extracts, dC + A: substrates deoxycytidine + adenine; for Enzymatic activity of raw extracts, dC + T: substrates deoxycytidine + thymine; for Enzymatic activity of raw extracts, dG + A: substrates deoxyguanosine + adenine.

For another data set, the system named is PAK 6 strain. Kind of data set: Growth of the PAK 6 strain on a glucose mineral medium (in vivo nutritional screening). The following applies: for Growth of the PAK 6 strain, A: glucose mineral medium with adenine; for Growth of the PAK 6 strain, dG + A: glucose mineral medium with deoxyguanosine + adenine; for Growth of the PAK 6 strain, G: glucose mineral medium with guanine. Set-up: key: (+) growth; (−) absence of growth. Format: cell-based, Escherichia coli. The source says: A functional screening allowing the production of guanine to be selected was established on E. coli by deleting the two genes of the guaBA operon which controls the conversion of IMP into XMP then into GMP and also those of the deoCABD operon which controls the degradation of deoxynucleosides to give the PAK 6 strain. The E. coli genome specifies an activity allowing the base G to be converted into GMP (guanine phosphoribosyltransferase encoded by the gpt gene), and also an activity allowing the base G to be released from the dR-G deoxynucleoside (purine nucleoside phosphorylase encoded by the deoD gene in the deo operon). The PAK 6 strain thus has a requirement for guanine (G) which cannot be satisfied by the addition of deoxyguanosine (dR-G). The use of deoxyguanosine (dR-G) can however be selected if an N-deoxyribosyltransferase activity is expressed in the PAK6 strain in order to carry out the exchange: dR-G+A<->dR-A+G.
This exchange between two purine bases can be catalyzed by the two enzyme classes.
DNA fragments of a size comprised between 1 and 2 kb obtained by partial digestion (AluI) of L. helveticus CNRZ 32 were ligated in a ColE1 plasmid (of pUC type digested by SmaI and desphosphorylated) and the mixture is used to transform the PAK6 strain. The transforming clones were selected in a glucose mineral medium to which deoxyguanosine (dR-G) and adenine (A) have been added to the final concentration of 0.3 mM.

B1: ntd: N-deoxyribosyltransferase of SEQ ID No. 6 coded by the ntd Lf gene of Lactobacillus fermentum (protein)
chain: LKNTDPVANTKIYLATSFFNEEQRARIPQALAQLEANPTVGVVHQPFDFQYKDARVDSDPAGVFGSLEWQIATYNNDLNAVGTSDVCVALYDMDQIDEGICMEIGMFVALHKPIVLLPFTKKDKSAYEANLMLARGVTTWLEPNDFSPLKDFNFNHPMAQPFPPFKVF
modifications: Lactobacillus fermentum NTD
Turning to B1, the “Class of N-deoxyribosyltransferase activity (I or II)” value (shortened to “Class”) in the data set on PAK 26 strain is on record as “Class II N-deoxyribosyltransferase activity”. In data set [1], the “Enzymatic activity of raw extracts, dC + A” value (shortened to “Enzymatic activity … dC + A”) is listed as “+”; the “Enzymatic activity of raw extracts, dC + T” value (shortened to “Enzymatic activity … dC + T”) is recorded as “+”; the “Enzymatic activity of raw extracts, dG + A” value (shortened to “Enzymatic activity … dG + A”) is “+”. In addition, in the data set on PAK 6 strain, the “Growth of the PAK 6 strain, A” value is “−”; the “Growth of the PAK 6 strain, dG + A” value is on record as “+”; the “Growth of the PAK 6 strain, G” value is “+”.

B2: ptd Lh: N-deoxyribosyltransferase of SEQ ID No. 4 coded by the ptd Lh gene of Lactobacillus helveticus (purine deoxyribosyltransferase) (protein)
chain: MKAVVPTGKIYLGSPFYSDAQRERAAKAKELLAKNLSIAHVFFPFDDGFTDPDEKNPEIGGIRSMVWRDATYQNDLTGISNATCGVFLYDMDQLDDGSAFEIGFMRAMHKPVILVPFTEHPEKEKKMNLMIAQGVTTIIDGNTEFEKLADYNFNECPFNPVRGYGIY
modifications: Lactobacillus helveticus PTD
For B2, the “Class” value in the data set with PAK 26 strain is on record as “Class I N-deoxyribosyltransferase activity”. Besides, in data set [1], the “Enzymatic activity … dC + A” value is on record as “−”; the “Enzymatic activity … dC + T” value was “−”; the “Enzymatic activity … dG + A” value is recorded as “+”. Further, in the data set with PAK 6 strain, the “Growth of the PAK 6 strain, A” value is given as “−”; the “Growth of the PAK 6 strain, dG + A” value is recorded as “+”; the “Growth of the PAK 6 strain, G” value is listed as “+”.

B3: ntd Lh: N-deoxyribosyltransferase of SEQ ID No. 2 (or SEQ ID No. 14) coded by the ntd Lh gene of Lactobacillus helveticus (protein)
chain: MNKKKTLYFGAGWFNEKQNKAYKEAMAALKENPTVDLENSYVPLENQYKGIRIDEHPEYLHNIEWASATYHNDLVGIKTSDVMLGVYLPEEEDVGLGMELGYALSQGKYILLVIPDEDYGKPINLMSWGVCDNAIKISELKDFDFNKPRYNFYDGAVY
modifications: Lactobacillus helveticus NTD
Turning to B3, the “Class” value in the data set on PAK 26 strain is on record as “Class II N-deoxyribosyltransferase activity”. Besides, in data set [1], the “Enzymatic activity … dC + A” value was “+”; the “Enzymatic activity … dC + T” value is on record as “+”; the “Enzymatic activity … dG + A” value is on record as “+”. For the same molecule, in the data set with PAK 6 strain, the “Growth of the PAK 6 strain, A” value is “−”; the “Growth of the PAK 6 strain, dG + A” value was “+”; the “Growth of the PAK 6 strain, G” value is reported as “+”.
